Assay: In vitro glycosylation of nootkatol by purified UGTs with UDP-glucose, LC-MS
Format: biochemical
Conditions: 5 mM nootkatol, 15 mM UDP-glucose, 5 μL purified enzyme, overnight at 30° C.
Description: UGT85A1 (SEQ ID NO:9, SEQ ID NO:10), UGT76E1 (SEQ ID NO:11, SEQ ID NO:12), UGT73E1 (SEQ ID NO:13, SEQ ID NO:14), UGT73C3 (SEQ ID NO:15, SEQ ID NO:16), and UGT76E12 (SEQ ID NO:17, SEQ ID NO:18) were each cloned into a T7 promoter-based vector comprising a sequence coding for an N-terminal 6×His-tag. The vector backbone was linearized with restriction endonucleases, the UGT genes were amplified by PCR, and the constructs were verified by DNA sequencing.
Competent E. coli expression cells were transformed individually with a UGT-comprising plasmid. A colony from each transformation was inoculated individually in 6 mL NZCYM broth comprising an antibiotic. The pre-culture was incubated overnight at 37° C. and 220 rpm and used to inoculate 100 mL NZYCM broth with an antibiotic at an initial OD600 of 0.2. After growth at 37° C. until an OD600 of 0.6-0.8, the cells were induced for protein expression using 0.2 mM IPTG, followed by incubation at 20° C. and 120 rpm for 18-20 h.
Cells were harvested by centrifugation at approximately 4° C. and approximately 4000 g for 20 min and resuspended in 3 mL 10 mM Tris-HCl, pH 8.0 plus protease inhibitor. After cell disruption, 6 mL 1×HIS binding buffer (20 mM Tris-HCl, pH 7.5, 500 mM NaCl, and 10 mM imidazole) were added to the suspension. Cell crude extracts were centrifuged at 4° C. and approximately 4000 g for 30 min. The supernatant was collected, and 300 μL of nickel beads were added; the mixture was incubated with gentle mixing at 4° C. for 2 h. The mixture was centrifuged at 4° C. and approximately 1000 g for 3 min, the supernatant was removed, and the beads were resuspended with 3 mL 1×HIS binding buffer. This step was performed twice. The beads were then resuspended and mixed gently in 500 μL 1×HIS Binding Buffer. The mixture was then transferred into a cold Eppendorf tube, centrifuged at 4° C. and approximately 1000 g, and the supernatant was removed. The beads were resuspended in 400 μL elution buffer (20 mM Tris-HCl, pH 7.5, 500 mM NaCl, 250 mM imidazole), mixed gently, centrifuged at 4° C. and approximately 1000 g for 3 min, and the supernatant was collected. This step was performed three times to collect three elution fractions. Glycerol was added in a 1:1 ratio to each elution tube and protein solutions were stored at −80° C. The fractions were analyzed by SDS-PAGE and Western Blot. The fraction comprising the UGT with the highest purity was used for the subsequent in vitro assay.
UGT85A1 (SEQ ID NO:9, SEQ ID NO:10), UGT76E1 (SEQ ID NO:11, SEQ ID NO:12), UGT73E1 (SEQ ID NO:13, SEQ ID NO:14), UGT73C3 (SEQ ID NO:15, SEQ ID NO:16), and UGT76E12 (SEQ ID NO:17, SEQ ID NO:18) were employed for in vitro glycosylation of nootkatol in the presence of the sugar donor, UDP-glucose. The reaction was carried out in a final volume of 50 μL buffer (100 mM Tris, pH 8.0, 5 mM MgCl2, 1 mM KCl), 5 mM nootkatol in DMSO, 15 mM UDP-glucose, and 5 μL purified enzyme solution. The reaction was incubated overnight at 30° C. The sample was analyzed by LC-MS on a BEH C18-column (100 mm×2.1 mm, 5 μm). Mobile phase A was 0.1% formic acid in water; mobile phase B was 0.1% formic acid in acetonitrile. B concentration gradient was 0-1 min, 1%; 1-5 min, 100%; 5-7 min, 100%; 7-7.1 min, 1%; 7.1-9 min, 1%. The injection volume was 5 μL. […]

B1: UGT73E1: UDP-glycosyltransferase, Stevia rebaudiana, SEQ ID NO: 13, SEQ ID NO: 14 (protein, listed as Stevia rebaudiana)
chain: MSPKMVAPPTNLHFVLFPLMAQGHLVPMVDIARILAQRGATVTIITTPYHANRVRPVISRAIATNLKIQLLELQLRSTEAGLPEGCESFDQLPSFEYWKNISTAIDLLQQPAEDLLRELSPPPDCIISDFLFPWTTDVARRLNIPRLVFNGPGCFYLLCIHVAITSNILGENEPVSSNTERVVLPGLPDRIEVTKLQIVGSSRPANVDEMGSWLRAVEAEKASFGIVVNTFEELEPEYVEEYKTVKDKKMWCIGPVSLCNKTGPDLAERGNKAAITEHNCLKWLDERKLGSVLYVCLGSLARISAAQAIELGLGLESINRPFIWCVRNETDELKTWFLDGFEERVRDRGLIVHGWAPQVLILSHPTIGGFLTHCGWNSTIESITAGVPMITWPFFADQFLNEAFIVEVLKIGVRIGVERACLFGEEDKVGVLVKKEDVKKAVECLMDEDEDGDQRRKRVIELAKMAKIAMAEGGSSYENVSSLIRDVTETVRAPH
Area-under-curve of the peak of glycosylated nootkatol (nootkatol+1 glucose) produced in vitro: 1288384

B2: UGT76E12: UDP-glycosyltransferase, Arabidopsis thaliana, SEQ ID NO: 17, SEQ ID NO: 18 (protein, listed as Arabidopsis thaliana)
chain: MQVLGMEEKPARRSVVLVPFPAQGHISPMMQLAKTLHLKGFSITVVQTKFNYFSPSDDFTHDFQFVTIPESLPESDFKNLGPIQFLFKLNKECKVSFKDCLGQLVLQQSNEISCVIYDEFMYFAEAAAKECKLPNIIFSTTSATAFACRSVFDKLYANNVQAPLKETKGQQEELVPEFYPLRYKDFPVSRFASLESIMEVYRNTVDKRTASSVIINTASCLESSSLSFLQQQQLQIPVYPIGPLHMVASAPTSLLEENKSCIEWLNKQKVNSVIYISMGSIALMEINEIMEVASGLAASNQHFLWVIRPGSIPGSEWIESMPEEFSKMVLDRGYIVKWAPQKEVLSHPAVGGFWSHCGWNSTLESIGQGVPMICRPFSGDQKVNARYLECVWKIGIQVEGELDRGVVERAVKRLMVDEEGEEMRKRAFSLKEQLRASVKSGGSSHNSLEEFVHFIRTL
Area-under-curve of the peak of glycosylated nootkatol (nootkatol+1 glucose) produced in vitro: 820053

B3: UGT73C3: UDP-glycosyltransferase, Arabidopsis thaliana, SEQ ID NO: 15, SEQ ID NO: 16 (protein, listed as Arabidopsis thaliana)
chain: MATEKTHQFHPSLHFVLFPFMAQGHMIPMIDIARLLAQRGVTITIVTTPHNAARFKNVLNRAIESGLAINILHVKFPYQEFGLPEGKENIDSLDSTELMVPFFKAVNLLEDPVMKLMEEMKPRPSCLISDWCLPYTSIIAKNFNIPKIVFHGMGCFNLLCMHVLRRNLEILENVKSDEEYFLVPSFPDRVEFTKLQLPVKANASGDWKEIMDEMVKAEYTSYGVIVNTFQELEPPYVKDYKEAMDGKVWSIGPVSLCNKAGADKAERGSKAAIDQDECLQWLDSKEEGSVLYVCLGSICNLPLSQLKELGLGLEESRRSFIWVIRGSEKYKELFEWMLESGFEERIKERGLLIKGWAPQVLILSHPSVGGFLTHCGWNSTLEGITSGIPLITWPLFGDQFCNQKLVVQVLKAGVSAGVEEVMKWGEEDKIGVLVDKEGVKKAVEELMGDSDDAKERRRRVKELGELAHKAVEKGGSSHSNITLLLQDIMQLAQFKN
Area-under-curve of the peak of glycosylated nootkatol (nootkatol+1 glucose) produced in vitro: 1211635

B4: UGT76E1: UDP-glycosyltransferase, Arabidopsis thaliana, SEQ ID NO: 11, SEQ ID NO: 12 (protein, listed as Arabidopsis thaliana)
chain: MEELGVKRRIVLVPVPAQGHVTPIMQLGKALYSKGFSITVVLTQYNRVSSSKDFSDFHFLTIPGSLTESDLKNLGPFKFLFKLNQICEASFKQCIGQLLQEQGNDIACVVYDEYMYFSQAAVKEFQLPSVLFSTTSATAFVCRSVLSRVNAESFLLDMKDPKVSDKEFPGLHPLRYKDLPTSAFGPLESILKVYSETVNIRTASAVIINSTSCLESSSLAWLQKQLQVPVYPIGPLHIAASAPSSLLEEDRSCLEWLNKQKIGSVIYISLGSLALMETKDMLEMAWGLRNSNQPFLWVIRPGSIPGSEWTESLPEEFSRLVSERGYIVKWAPQIEVLRHPAVGGFWSHCGWNSTLESIGEGVPMICRPFTGDQKVNARYLERVWRIGVQLEGELDKGTVERAVERLIMDEEGAEMRKRVINLKEKLQASVKSRGSSFSSLDNFVNSLKMMNFM
Area-under-curve of the peak of glycosylated nootkatol (nootkatol+1 glucose) produced in vitro: 1566336
